Data reported in article PMC12127727, “Double the Double: Revisiting BCL11B's Multimerization” (Proteins, 2025).
Positions count from the first letter of the chain named. Names may count otherwise.

B1: BCL11B_(42–426) WT (domain or fragment, human, UniProt Q9C0K0 42-426, looked up)
chain: SGLGLMVGGPDPDLLTCGQCQMNFPLGDILVFIEHKRKQCGGSLGACYDKALDKDSPPPSSRSELRKVSEPVEIGIQVTPDEDDHLLSPTKGICPKQENIAGPCRPAQLPAVAPIAASSHPHSSVITSPLRALGALPPCLPLPCCSARPVSGDGTQGEGQTEAPFGCQCQLSGKDEPSSYICTTCKQPFNSAWFLLQHAQNTHGFRIYLEPGPASSSLTPRLTIPPPLGPEAVAQSPLMNFLGDSNPFNLLRMTGPILRDHPGFGEGRLPGTPPLFSPPPRHHLDPHRLSAEEMGLVAQHPSAFDRVMRLNPMAIDSPAMDFSRRLRELAGNSSTPPPVSPGRGNPMHRLLNPFQPSPKSPFLSTPPLPPMPPGGTPPPQPPAKS
notes: source: E. coli, recombinantly expressed, purified
B2: BCL11B_(42–94) WT (N-terminal wild-type zinc finger domain, ZF0) (domain or fragment, human, UniProt Q9C0K0 42-94, looked up)
chain: SGLGLMVGGPDPDLLTCGQCQMNFPLGDILVFIEHKRKQCGGSLGACYDKALD
notes: B Cell Lymphoma/Leukemia 11B (BCL11B), human, residues 42-94, atypical CCHC zinc finger domain ZF0; source: E. coli, recombinantly expressed, purified
B3: BCL11B_(42–94) L71A/V72A (domain or fragment, human, UniProt Q9C0K0 42-94, looked up)
chain: B2 chain with L30A, V31A
notes: BCL11B, human, residues 42-94 (ZF0) with L71A and V72A; also called double mutant L71A/V72A; source: E. coli, recombinantly expressed, purified
B4: BCL11B_(42–94) C81H (domain or fragment, human, UniProt Q9C0K0 42-94, looked up)
chain: B2 chain with C40H
notes: BCL11B, human, residues 42-94 (ZF0) with C81H, which turns the CCHC zinc finger into a C2H2 zinc finger; also called zinc finger mutant C81H; source: E. coli, recombinantly expressed, purified
B5: BCL11B_(42–94) I74A (domain or fragment, human, UniProt Q9C0K0 42-94, looked up)
chain: B2 chain with I33A
notes: BCL11B, human, residues 42-94 (ZF0) with I74A; CD spectra indicate an incomplete zinc finger fold; source: E. coli, recombinantly expressed, purified
B6: BCL11B_(42–94) K77A (domain or fragment, human, UniProt Q9C0K0 42-94, looked up)
chain: B2 chain with K36A
notes: BCL11B, human, residues 42-94 (ZF0) with K77A; also called lysine mutant K77A; source: E. coli, recombinantly expressed, purified
B7: BCL11B_(42–94) I70A (domain or fragment, human, UniProt Q9C0K0 42-94, looked up)
chain: B2 chain with I29A
notes: BCL11B, human, residues 42-94 (ZF0) with I70A; CD spectra indicate an incomplete zinc finger fold; source: E. coli, recombinantly expressed, purified
B8: BCL11B_(42–220) WT (domain or fragment, human, UniProt Q9C0K0 42-220, looked up)
chain: SGLGLMVGGPDPDLLTCGQCQMNFPLGDILVFIEHKRKQCGGSLGACYDKALDKDSPPPSSRSELRKVSEPVEIGIQVTPDEDDHLLSPTKGICPKQENIAGPCRPAQLPAVAPIAASSHPHSSVITSPLRALGALPPCLPLPCCSARPVSGDGTQGEGQTEAPFGCQCQLSGKDEPSS
notes: BCL11B, human, residues 42-220: ZF0 extended up until the first C2H2 zinc finger domain (ZF1); source: E. coli, recombinantly expressed, purified

Experiments:
[1] = molecular target: the molecule itself; assay: SEC; analytical size exclusion chromatography of the purified recombinant constructs; stoichiometric factors calculated from elution volumes with a calibration curve (Figure S1); rough estimate of molecular weights
[2] = molecular target: the molecule itself; assay: cross-linking; constructs incubated with BS(PEG)5 (bis-succinimide ester-activated PEG, 21.7 Å), then reducing 16% tricine SDS-PAGE of crosslinked and control samples

Protein | stoichiometry N [1] | stoichiometry N [2]
B1 | 4 | 
B2 | 7 | 4
B3 |  | 4
B4 |  | 4
B5 |  | 2
B6 |  | 2
B7 |  | 2
B8 | 16.6 | 
